According to the RNAGym collection of RNA variant scans (doi:10.7554/elife.80360):

B1: CPEB3 Ribozyme (parent)
chain: GGGGGCCACAGCAGAAGCGUUCACGUCGCGGCCCCUGUCAGAUUCUGGUGAAUCUGCGAAUUCUGCUGU

Variants of: B1
Assay: self-cleavage, relative activity (ratio to wild type); higher = more cleavage; co-transcriptional
G31U A51G showed a self-cleavage of 0.636. Work on G31U A42G yielded a self-cleavage of 0.692. For G31U A42C, the self-cleavage was 0.458. C32A C57G showed a self-cleavage of 0.27. In the case of C32A C57U, the self-cleavage is reported as 0.25. In the case of G31C U44A, the self-cleavage is reported as 0.257. G31C U44G gave a self-cleavage of 0.242. For G31C C33A, the self-cleavage was 0.338. With G31C C33G the self-cleavage was 0.443. Work on G31C G50C yielded a self-cleavage of 0.245. In the case of G31C G50U, the self-cleavage is reported as 0.238. With G31U C66U the self-cleavage was 0.732. For G31U C66G, the self-cleavage was 0.415. With G31U C66A the self-cleavage was 0.489. Variant G31A U43G has a self-cleavage of 0.524. G31A U43A showed a self-cleavage of 0.59. G31A U43C showed a self-cleavage of 0.601. Work on C32A G50A yielded a self-cleavage of 0.693. C32A G50C gave a self-cleavage of 0.716. Work on C32A U43A yielded a self-cleavage of 0.345. Work on C32A U43C yielded a self-cleavage of 0.441. Variant G31A U61G has a self-cleavage of 0.381. In the case of G31A U61A, the self-cleavage is reported as 0.364. Variant C32A G47C has a self-cleavage of 0.869. Variant C32A G47A has a self-cleavage of 0.877. Work on G31A G47U yielded a self-cleavage of 0.915. C32G A52C showed a self-cleavage of 0.435. In the case of G31A C57A, the self-cleavage is reported as 0.307. Variant G31A C57U has a self-cleavage of 0.34. G31A U44A showed a self-cleavage of 0.808. G31A U44C gave a self-cleavage of 0.749. G31A U44G showed a self-cleavage of 0.585. With G31U A40C the self-cleavage was 0.254. For G31U A40G, the self-cleavage was 0.457. For G31U G50U, the self-cleavage was 0.754. In the case of G31U G50C, the self-cleavage is reported as 0.742. In the case of G31U U49A, the self-cleavage is reported as 0.71. For G31U U49C, the self-cleavage was 0.731. G31A U53C showed a self-cleavage of 0.58. Work on G31A U53A yielded a self-cleavage of 0.554. Variant C32A G37C has a self-cleavage of 0.336. With G31C G58A the self-cleavage was 0.21. With G31C U55A the self-cleavage was 0.188. With G31C U55C the self-cleavage was 0.225. G31U U61G showed a self-cleavage of 0.351. In the case of G31U U61A, the self-cleavage is reported as 0.289. Variant C32G A51C has a self-cleavage of 0.353. With C32G A51U the self-cleavage was 0.419. Variant G31A G58A has a self-cleavage of 0.741. Work on G31A C39U yielded a self-cleavage of 0.589. G31A C39G showed a self-cleavage of 0.733. Variant G31A G50U has a self-cleavage of 0.889. In the case of G31A G50A, the self-cleavage is reported as 0.95. With G31A G50C the self-cleavage was 0.84. Work on G31A C33A yielded a self-cleavage of 0.266. G31A C33U showed a self-cleavage of 0.587. Variant C32G A40C has a self-cleavage of 0.308. For C32G A40G, the self-cleavage was 0.442. C32G A40U gave a self-cleavage of 0.281. Variant G31U G56A has a self-cleavage of 0.386. G31U G56U gave a self-cleavage of 0.568. For G31U G47U, the self-cleavage was 0.795. With G31U G47C the self-cleavage was 0.684. Work on G31U G47A yielded a self-cleavage of 0.787. In the case of C32A C54G, the self-cleavage is reported as 0.333. C32A C54A showed a self-cleavage of 0.328. C32A C54U gave a self-cleavage of 0.803. Variant C32A U36A has a self-cleavage of 0.275. For C32A U36C, the self-cleavage was 0.593. For C32A C33A, the self-cleavage was 0.308. In the case of C32A C33U, the self-cleavage is reported as 0.231. Work on G31U A60U yielded a self-cleavage of 0.229. Variant G31U A60G has a self-cleavage of 0.277. For G31A U49C, the self-cleavage was 0.938. With G31A U49G the self-cleavage was 0.812. With G31A U49A the self-cleavage was 0.886. G31U A59U gave a self-cleavage of 0.334. G31C U69G gave a self-cleavage of 0.444. In the case of C32A A60C, the self-cleavage is reported as 0.27. C32A A60U gave a self-cleavage of 0.257. G31C A60C gave a self-cleavage of 0.21. G31C A60G showed a self-cleavage of 0.226. With G31C A60U the self-cleavage was 0.144. In the case of C32A U38C, the self-cleavage is reported as 0.504.
